Publication PMC7153837

Target: B10v5xhu225L, c-METxEGFR bispecific SEED antibody reconstituted by Npu DnaE protein trans-splicing
Assay: BLI

Kd: 220 nM
Substance: EGFR (EGF receptor), recombinant antigen (from UniProt P00533 25-1210)
